Results on one molecule are retold here after paper PMC10626271 (FEBS Open Bio, 2023).

Data set [1] concerns the molecule itself. Kind of data set: SEC; Superdex 75 increase 10/300 of Ni-NTA purified Trx-ICH_(GLUT4). In general terms: Size exclusion chromatography separates by hydrodynamic size, large species first.
Data set [2] deals with T1, C-terminal domain of ASPL (ASPL-C, residues 313-553) (human, UniProt Q9BZE9 313-553).
T1 construct: the 26 kDa printed for ASPL-C in the cross-linking experiment fits the chain without GST; The cited crystal structure covers residues 317-499; source: E. coli BL21 DE3 Rosetta2, purified (glutathione-Sepharose 4B, Superdex 75 SEC)
T1 sequence (looked up): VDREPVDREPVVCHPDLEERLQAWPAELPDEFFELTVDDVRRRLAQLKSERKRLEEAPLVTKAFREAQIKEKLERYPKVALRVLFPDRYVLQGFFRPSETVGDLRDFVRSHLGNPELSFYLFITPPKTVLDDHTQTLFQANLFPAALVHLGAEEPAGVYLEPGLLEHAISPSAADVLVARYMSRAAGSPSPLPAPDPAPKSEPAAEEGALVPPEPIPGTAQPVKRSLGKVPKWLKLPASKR
Kind of data set: SPR; ASPL-C immobilised on CM5 chip by amine coupling (1000 RU); analytes 0.6 to 83 μM in 10 mM HEPES, 150 mM NaCl, 0.005% Tween20, pH 7.4; BIAcore 3000, duplicates; one-site specific binding fit of the response against concentration; no saturation reached. The settings on record: both partners purified.

B1: Thioredoxin fused C-terminally with human GLUT4 intracellular helical bundle (residues 225-271, I232C/K264C) (domain or fragment, UniProt P14672 225-271, looked up)
chain: ESPRYLYCIQNLEGPARKSLKRLTGWADVSGVLAELKDECRKLERER
notes: human GLUT4 intracellular helical bundle (ICH) between TM6 and TM7, residues 225-271, with I232C and K264C to form a stabilising disulphide bond; Synthetic gene (GenScript) in pET24a; 18 kDa monomer; a 36 kDa peak was also seen on SEC; also called Trx-ICH_(GLUT4); ICH_(GLUT4); source: E. coli TUNER (DE3), purified (Ni-NTA, Superdex 75 SEC; monomer peak used); not shown: Trx (thioredoxin), …
As to B1, in data set [1], the “stoichiometry N” value was 2. The same molecule gave a dissociation constant (Kd) in data set [2] of 68 µM.

Usually stoichiometry N stands for the number of molecules, sites or subunits per partner or assembly. Usually Kd stands for the constant that tells how readily two partners part at equilibrium.
